In patent US20200207829:

Legend:
[1] = target: T1, TMt-NLS-dCas9VP64
T1 chain: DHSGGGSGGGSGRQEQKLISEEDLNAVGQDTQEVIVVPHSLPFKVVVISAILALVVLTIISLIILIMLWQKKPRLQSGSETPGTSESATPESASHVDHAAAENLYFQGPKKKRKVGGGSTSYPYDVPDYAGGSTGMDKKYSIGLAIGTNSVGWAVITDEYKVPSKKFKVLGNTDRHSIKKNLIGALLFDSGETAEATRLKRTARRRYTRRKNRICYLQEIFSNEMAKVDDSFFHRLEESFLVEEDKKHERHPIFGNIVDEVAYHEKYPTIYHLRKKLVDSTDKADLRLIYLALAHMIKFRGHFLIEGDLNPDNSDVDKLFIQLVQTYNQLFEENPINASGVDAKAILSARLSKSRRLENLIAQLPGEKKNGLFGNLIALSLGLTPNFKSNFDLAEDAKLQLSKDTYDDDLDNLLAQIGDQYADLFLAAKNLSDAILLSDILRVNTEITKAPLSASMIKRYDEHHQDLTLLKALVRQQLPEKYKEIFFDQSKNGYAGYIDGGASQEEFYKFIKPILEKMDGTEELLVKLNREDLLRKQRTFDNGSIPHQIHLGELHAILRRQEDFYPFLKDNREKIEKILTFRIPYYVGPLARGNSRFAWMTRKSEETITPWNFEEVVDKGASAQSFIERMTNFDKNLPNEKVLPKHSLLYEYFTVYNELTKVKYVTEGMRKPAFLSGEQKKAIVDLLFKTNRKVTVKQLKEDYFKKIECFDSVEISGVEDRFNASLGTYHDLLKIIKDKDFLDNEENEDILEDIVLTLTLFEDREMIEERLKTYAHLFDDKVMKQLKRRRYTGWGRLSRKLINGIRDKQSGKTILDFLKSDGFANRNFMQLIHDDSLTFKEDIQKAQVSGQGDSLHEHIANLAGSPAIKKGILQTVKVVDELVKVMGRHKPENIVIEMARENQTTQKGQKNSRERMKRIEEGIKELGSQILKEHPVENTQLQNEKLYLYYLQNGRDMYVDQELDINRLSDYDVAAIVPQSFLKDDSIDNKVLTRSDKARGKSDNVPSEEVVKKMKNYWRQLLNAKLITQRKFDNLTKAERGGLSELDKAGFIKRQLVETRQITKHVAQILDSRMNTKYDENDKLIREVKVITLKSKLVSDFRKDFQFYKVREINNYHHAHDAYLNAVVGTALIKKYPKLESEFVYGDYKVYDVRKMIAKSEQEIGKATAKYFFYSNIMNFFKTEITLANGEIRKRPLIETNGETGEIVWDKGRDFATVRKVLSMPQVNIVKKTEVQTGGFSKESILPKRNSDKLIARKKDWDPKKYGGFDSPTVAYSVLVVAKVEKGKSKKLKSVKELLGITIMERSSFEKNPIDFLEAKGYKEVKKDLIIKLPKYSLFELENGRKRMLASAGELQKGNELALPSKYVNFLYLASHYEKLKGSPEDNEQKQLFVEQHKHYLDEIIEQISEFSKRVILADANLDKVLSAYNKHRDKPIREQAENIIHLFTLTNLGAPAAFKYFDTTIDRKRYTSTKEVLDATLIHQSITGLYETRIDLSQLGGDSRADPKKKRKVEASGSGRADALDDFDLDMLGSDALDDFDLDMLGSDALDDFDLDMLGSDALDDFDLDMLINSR

[2] = target: TMt-NESΔTCS-dCas9VP64

B1: TEV protease (protein)
chain: MHHHHHHHHHGESLFKGPRDYNPISSTICHLTNESDGHTTSLYGIGFGPFIITNKHLFRRNNGTLLVQSLHGVFKVKNTTTLQQHLIDGRDMIIIRMPKDFPPFPQKLKFREPQREERICLVTTNFQTKSMSSMVSDTSCTFPSSDGIFWKHWIQTKDGQCGSPLVSTRDGFIVGIHSASNFTNTNNYFTSVPKNFMELLTNQEAQQWVSGWRLNADSVLWGGHKVFMVKPEEPFQPVKEATQLMNRRRRP
[1]
  anti-HA immunofluorescence, localisation of dCas9-VP64: co-expression of TEV protease resulted in highly efficient release of dCas9-VP64 from the membrane tether and subsequent nuclear localization
[2]
  EYFP activation score: did not show any activity above baseline levels
